# From article PMC6254361, “The properties of Msh2–Msh6 ATP binding mutants suggest a signal amplification mechanism in DNA mismatch repair” (The Journal of Biological Chemistry, 2018)
# Key:
# [1] = biological target: Walker A Lys mutant Msh2–Msh6 complexes (S. cerevisiae); assay: SPR; Biacore T100; 236-bp GT mispair DNA held by biotin-streptavidin, other end blocked by lacO-LacI; 20 nM Msh2–Msh6, 250 μM ATP, 30 nM LacI for 100 s, then the same plus 40 nM Mlh1–Pms1 for 300 s; recruitment read as the increase in RU over steady-state Msh2–Msh6; 25 mM Tris pH 8, 4 mM MgCl2, 110 mM NaCl, 0.01% Igepal, 2 mM DTT, 2% glycerol; 10 °C, 20 μl/min; settings: scale: Mlh1–Pms1 complexes bound per Msh2–Msh6 complex
# [2] = biological target: S. cerevisiae Mlh1–Pms1 [S. cerevisiae]; assay: SPR; settings: GT mispair-containing double end-blocked DNA surface; buffer with ATP and LacI; read off a plot
# [3] = test system: Msh2(K694R);Msh6 (Saccharomyces cerevisiae;Saccharomyces cerevisiae); assay: SPR; settings: ATP up to 2.5 mM, LacI; SPR on streptavidin surface; buffer, salt, pH and temperature not given in the material; with or without 0.1-2.5 mM ATP; LacI end block, released by 1 mM IPTG
# [4] = test system: Msh2(K694M);Msh6 (Saccharomyces cerevisiae;Saccharomyces cerevisiae); assay: SPR; settings: ATP up to 2.5 mM, LacI; SPR on streptavidin surface; buffer, salt, pH and temperature not given in the material; with or without 0.1-2.5 mM ATP; LacI end block, released by 1 mM IPTG
# [5] = test system: Msh2;Msh6;Mlh1;Pms1 (Saccharomyces cerevisiae;Saccharomyces cerevisiae;Saccharomyces cerevisiae;Saccharomyces cerevisiae); assay: SPR; settings: ATP, LacI; SPR on streptavidin surface; buffer, salt, pH and temperature not given in the material; with or without 0.1-2.5 mM ATP; LacI end block, released by 1 mM IPTG
# [6] = test system: Msh2;Msh6(G1142D) (Saccharomyces cerevisiae;Saccharomyces cerevisiae); assay: SPR; settings: 0.1 and 2.5 mM ATP, LacI; printed as no more than 0.86; SPR on streptavidin surface; buffer, salt, pH and temperature not given in the material; with or without 0.1-2.5 mM ATP; LacI end block, released by 1 mM IPTG
# [7] = test system: Msh2(K694A);Msh6 (Saccharomyces cerevisiae;Saccharomyces cerevisiae); assay: SPR; settings: ATP up to 2.5 mM, LacI; SPR on streptavidin surface; buffer, salt, pH and temperature not given in the material; with or without 0.1-2.5 mM ATP; LacI end block, released by 1 mM IPTG
# [8] = test system: Msh2;Msh6 (Saccharomyces cerevisiae;Saccharomyces cerevisiae); assay: SPR; settings: SPR on streptavidin surface; buffer, salt, pH and temperature not given in the material; with or without 0.1-2.5 mM ATP; LacI end block, released by 1 mM IPTG
substance,measurement,setting,value
S. cerevisiae Mlh1–Pms1 (from UniProt P38920 1-769; P14242 1-873) (complex),stoichiometry N,[1],2.06 to 3.75
S. cerevisiae Msh2–Msh6 (WT) mutant Msh6:K988R [S. cerevisiae] / S. cerevisiae Mlh1–Pms1 [S. cerevisiae] chain 4 K988R,screen value,[2],2.4
"236-bp mispaired DNA, double end-blocked",binding signal (Msh2-Msh6 per DNA (maximum)),[3],1
same,binding signal (Msh2-Msh6 per DNA (maximum)),[4],1
same,binding signal (Mlh1-Pms1 per Msh2-Msh6),[5],1.07
same,binding signal (Msh2-Msh6 per DNA),[6],< 0.86
same,binding signal (Msh2-Msh6 per DNA (maximum)),[7],1
S. cerevisiae Msh2–Msh6 (WT) mutant Msh6:K988A [S. cerevisiae] / S. cerevisiae Mlh1–Pms1 [S. cerevisiae] chain 4 K988A,screen value,[2],3.3
S. cerevisiae Msh2–Msh6 (WT) mutant Msh2:K694M [S. cerevisiae] / S. cerevisiae Mlh1–Pms1 [S. cerevisiae] chain 3 K694M,screen value,[2],4.9
S. cerevisiae Msh2–Msh6 (WT) mutant Msh6:K988M [S. cerevisiae] / S. cerevisiae Mlh1–Pms1 [S. cerevisiae] chain 4 K988M,screen value,[2],3.4
236-bp +T mispair DNA,binding signal (% of WT RUmax),[8],100
S. cerevisiae Msh2–Msh6 (WT) mutant Msh2:K694A [S. cerevisiae] / S. cerevisiae Mlh1–Pms1 [S. cerevisiae] chain 3 K694A,screen value,[2],3.5
S. cerevisiae Msh2–Msh6 (WT) mutant Msh2:K694R [S. cerevisiae] / S. cerevisiae Mlh1–Pms1 [S. cerevisiae] chain 3 K694R,screen value,[2],4.3
